Results on 26 substances are retold here after patent US20130011427A1 (priority 2009, published 2013).

Experiment [1] has as its system HLA-B7 (HLA-B*0702) Tg mice, CD4-depleted splenocytes. The class given is cell-based, mouse.
In experiment [2] the target is HLA-B7 (chimeric HLA-B*0702 / H-2K^d heavy chain) (human; murine) (UniProt P01902). Briefly: cell-based or functional assay.
The target in experiment [3] is HLA-A24 (HLA-A*2402 with human β2-microglobulin) (human). Briefly: cell-based or functional assay.
Experiment [4] deals with HLA-DR2 (chimeric HLA-DRA1*0101/DRB1*1501 with I-E domains) (human; murine) (UniProt Q8BHN5). Briefly: cell-based or functional assay.
UniProt Q8BHN5, sequence (Q8BHN5 whole entry, stated change not applied): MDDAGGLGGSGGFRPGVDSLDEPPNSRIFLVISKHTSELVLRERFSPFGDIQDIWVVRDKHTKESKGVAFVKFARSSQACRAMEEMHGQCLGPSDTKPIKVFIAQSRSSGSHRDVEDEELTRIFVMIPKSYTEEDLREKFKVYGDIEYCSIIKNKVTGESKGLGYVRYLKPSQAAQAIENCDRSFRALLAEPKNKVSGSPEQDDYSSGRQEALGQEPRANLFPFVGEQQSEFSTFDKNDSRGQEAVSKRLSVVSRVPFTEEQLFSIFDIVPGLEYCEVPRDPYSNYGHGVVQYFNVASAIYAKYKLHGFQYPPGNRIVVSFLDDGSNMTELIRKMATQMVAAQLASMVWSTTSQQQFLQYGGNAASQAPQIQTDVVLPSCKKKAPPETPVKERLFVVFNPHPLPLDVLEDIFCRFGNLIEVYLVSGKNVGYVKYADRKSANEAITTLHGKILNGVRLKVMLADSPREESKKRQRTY
Experiment [5] addresses HLA-DR4 (HLA-DRA*0101 / HLA-DRB1*0401) (human). Briefly: cell-based or functional assay.
Experiment [6] deals with HLA-DR2 (DRB1*1501) Tg mice, CD8-depleted splenocytes. It is filed as cell-based, mouse.
The subject of experiment [7] is HLA-A2.1 (HLA-A*0201) Tg mice, CD4-depleted splenocytes. The class given is cell-based, mouse.
Experiment [8] deals with HLA-A24/huCD8α (HLA-A*2402) Tg mice, CD4-depleted splenocytes. It is filed as cell-based, mouse.
In experiment [9] the test system is HLA-DR4/huCD4 (DRB1*0401) Tg mice, CD8-depleted splenocytes. The class given is cell-based, mouse.
Experiment [10] concerns HLA-DR3 (DRB1*0301) Tg mice, CD8-depleted splenocytes. It is filed as cell-based, mouse.
Experiment [11] concerns the target HLA-A2.1 (HHD monochain) (human; murine). Briefly: cell-based or functional assay.
Experiment [12] has as its target HLA-DR3 (HLA-DRA*0101 / HLA-DRB1*0301) (human). Briefly: cell-based or functional assay.

UniProt P01902, sequence (P01902 whole entry, change not shown): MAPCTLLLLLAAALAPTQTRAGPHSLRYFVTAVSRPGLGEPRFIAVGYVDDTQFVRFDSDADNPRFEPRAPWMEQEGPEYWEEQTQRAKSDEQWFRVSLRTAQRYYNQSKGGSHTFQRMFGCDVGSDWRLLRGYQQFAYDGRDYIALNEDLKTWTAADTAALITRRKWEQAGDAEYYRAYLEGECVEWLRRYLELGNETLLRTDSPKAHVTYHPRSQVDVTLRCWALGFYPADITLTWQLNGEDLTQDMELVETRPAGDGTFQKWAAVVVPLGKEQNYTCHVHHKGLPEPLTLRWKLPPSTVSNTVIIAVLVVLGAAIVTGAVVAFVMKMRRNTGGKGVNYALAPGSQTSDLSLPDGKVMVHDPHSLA

As for GGVLWDTPSPKEYKK [NS3 1-15], the “T cell activation of HLA transgenic mice (SFC/10^6) IFN-γ ELISpot, B7” value (from here on “T cell activation of HLA transgenic mice … B7”) in [1] worked out at 45 ± 12 SFC/10^6.
As to WNV prM 129-145 peptide, the results for the IFN-γ ELISpot (SFC/10^6) in experiment [2], in experiment [3] and in experiment [4] were 31 SFC/10^6, 71 SFC/10^6 and 62 SFC/10^6, respectively.
Take WNV C 9-25 peptide: the IFN-γ ELISpot (SFC/10^6) in experiment [2] was determined as 43 SFC/10^6.
For the substance WNV NS5 763-780 peptide, the IFN-γ ELISpot (SFC/10^6) in experiment [2] was 36 SFC/10^6; in experiment [5], 91 SFC/10^6.
Regarding SAEVEEHRTIRVLEMV [NS5 153-168], the “T cell activation of HLA transgenic mice … B7” value in [1] was determined as 112 ± 72 SFC/10^6. For the same substance, the “T cell activation of HLA transgenic mice (SFC/10^6) IFN-γ ELISpot, DR2” value (shortened to “T cell activation of HLA transgenic mice … DR2”) in [6] is 250 ± 24 SFC/10^6. Besides, the “T cell activation of HLA transgenic mice (SFC/10^6) IFN-γ ELISpot, A2” value in experiment [7] worked out at 332 ± 52 SFC/10^6.
On to TFLVHREWFMDLNLPW [E 210-225], for which, in experiment [1], the “T cell activation of HLA transgenic mice … B7” value worked out at 519 ± 477 SFC/10^6. Besides, the “T cell activation of HLA transgenic mice (SFC/10^6) IFN-γ ELISpot, A2” value in [7] was determined as 323 ± 175 SFC/10^6.
For MLGSNTMQRVVFVVLLLL [prM 144-161], the “T cell activation of HLA transgenic mice (SFC/10^6) IFN-γ ELISpot, A24” value (“T cell activation of HLA transgenic mice … A24” below) in experiment [8] is 59 ± 18 SFC/10^6. Besides, the “T cell activation of HLA transgenic mice (SFC/10^6) IFN-γ ELISpot, DR4” value (from here on “T cell activation of HLA transgenic mice … DR4”) in experiment [9] came out at 315 ± 157 SFC/10^6. In addition, in experiment [10], the “T cell activation of HLA transgenic mice (SFC/10^6) IFN-γ ELISpot, DR3” value came to 134 ± 35 SFC/10^6. Besides, the “T cell activation of HLA transgenic mice … DR2” value in experiment [6] is listed as 84 ± 32 SFC/10^6.
For the substance WNV NS5 145-162 peptide, the IFN-γ ELISpot (SFC/10^6) in experiment [2] was 50 SFC/10^6.
On to YAQMWLLLYFHRRDLRLM [NS5 763-780], for which the “T cell activation of HLA transgenic mice … DR4” value in [9] was determined as 91 ± 32 SFC/10^6. For the same substance, the “T cell activation of HLA transgenic mice … B7” value in experiment [1] turned out to be 36 ± 16 SFC/10^6.
For WNV NS5 828-843 peptide, the IFN-γ ELISpot (SFC/10^6) in experiment [2] amounted to 39 SFC/10^6.
With ISAYTPWAILPSVVGFWI [NS2b 107-124], the “T cell activation of HLA transgenic mice … A24” value in experiment [8] amounted to 50 ± 11 SFC/10^6. Further, the “T cell activation of HLA transgenic mice … DR4” value in experiment [9] came out at 163 ± 4 SFC/10^6. Further, in experiment [1], the “T cell activation of HLA transgenic mice … B7” value came out at 81 ± 8 SFC/10^6.
For the substance WMEDKTPVEKWSDVPY [NS5 828-843], the “T cell activation of HLA transgenic mice … B7” value in experiment [1] stood at 39 ± 14 SFC/10^6.
On to WNV NS2b 107-124 peptide, for which the IFN-γ ELISpot (SFC/10^6) was 81 SFC/10^6 in experiment [2], 50 SFC/10^6 in experiment [3] and 163 SFC/10^6 in experiment [5].
Consider WNV E 210-225 peptide, for which the IFN-γ ELISpot (SFC/10^6) in experiment [2] was found to be 519 SFC/10^6; in experiment [11], 323 SFC/10^6.
In the case of CDIGESSSSAEVEEHRTI [NS5 145-162], the “T cell activation of HLA transgenic mice … B7” value in [1] was found to be 50 ± 22 SFC/10^6.
PAAPSYTLKLGEYGEVTV [E 171-188]: the “T cell activation of HLA transgenic mice … B7” value in [1] is 996 ± 100 SFC/10^6. Also, the “T cell activation of HLA transgenic mice (SFC/10^6) IFN-γ ELISpot, A2” value in [7] was 279 ± 217 SFC/10^6.
With WNV NS2a 45-61 peptide, the values for the IFN-γ ELISpot (SFC/10^6) in experiment [3], in experiment [4] and in experiment [5] were 243 SFC/10^6, 307 SFC/10^6 and 74 SFC/10^6, respectively.
For WNV NS3 1-15 peptide, the IFN-γ ELISpot (SFC/10^6) in experiment [2] is 45 SFC/10^6.
LRNPGYALVAAVIGWML [prM 129-145]: the “T cell activation of HLA transgenic mice … A24” value in [8] came out at 71 ± 38 SFC/10^6. The “T cell activation of HLA transgenic mice … B7” value in experiment [1] is 31 ± 7 SFC/10^6. Further, the “T cell activation of HLA transgenic mice … DR2” value in experiment [6] is reported as 62 ± 11 SFC/10^6.
Substance WNV NS5 470-486 peptide gave an IFN-γ ELISpot (SFC/10^6) in [3] of 183 SFC/10^6.
As for GKSRAVNMLKRGMPRVL [C 9-25], in experiment [1], the “T cell activation of HLA transgenic mice … B7” value turned out to be 43 ± 17 SFC/10^6.
Turning to WNV NS5 863-879 peptide, the results for the IFN-γ ELISpot (SFC/10^6) in [3], in [12] and in experiment [5] were 79 SFC/10^6, 121 SFC/10^6 and 33 SFC/10^6, respectively.
For WNV E 171-188 peptide, the IFN-γ ELISpot (SFC/10^6) came to 996 SFC/10^6 in [2] and 279 SFC/10^6 in experiment [11].
On to WNV NS5 153-168 peptide, for which the IFN-γ ELISpot (SFC/10^6) worked out at 112 SFC/10^6 in experiment [2], 250 SFC/10^6 in experiment [4] and 332 SFC/10^6 in [11].
For the substance WNV E 195-212 peptide, the IFN-γ ELISpot (SFC/10^6) in experiment [3] was found to be 137 SFC/10^6; in experiment [5] it was 53 SFC/10^6.
WNV NS4a 86-103 peptide: the IFN-γ ELISpot (SFC/10^6) in [3] turned out to be 65 SFC/10^6; in [5] it was 63 SFC/10^6.
